Results as given in the supplement of paper PMC10724198.
± gives the standard deviation of the averaged measurements.
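Note: PSI is a weighted mean of sequencing reads over stability bins, variants kept only with over 10 reads, mCherry proximal and sfGFP distal, peptide attached via GGGS linker.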

Each sequence was assayed on Saccharomyces cerevisiae (assay: protein stability index of tFT-peptide fusion (C-terminal peptide) (PSI (0-1 scale)); higher = more stable (slower turnover)). Conditions: genetic background: wild type; temperature: 30 C.
VAWSACRLSLWG gave a protein stability index of 0.889 ± 0.016.
Sequence VAWYALPWCVLI has a protein stability index of 0.6211 ± 0.0041.
For VCAVPSILPPPP, the protein stability index was 0.6902 ± 0.0061.
With VCCSDSLCFVVS the protein stability index was 0.601 ± 0.052.
VCCSQWPLGFSV showed a protein stability index of 0.733 ± 0.068.
In the case of VCEGFRTWALGG, the protein stability index is reported as 0.722 ± 0.03.
With VCESAGERVMGG the protein stability index was 0.705 ± 0.051.
VCGFRVGGYIGV showed a protein stability index of 0.723 ± 0.064.
Work on VCGGGEGGERGG yielded a protein stability index of 0.799 ± 0.057.
Sequence VCGLGGCGGLGV has a protein stability index of 0.731 ± 0.039.
Sequence VCGSRAVRRTEL has a protein stability index of 0.712 ± 0.07.
VCSGPKSPATQQ was tested, and the protein stability index was 0.695 ± 0.048.
VCSGSGIGNLFE showed a protein stability index of 0.7912 ± 0.0019.
VCSPLLIYSVGV showed a protein stability index of 0.624 ± 0.051.
In the case of VCVDLFGLRASA, the protein stability index is reported as 0.631 ± 0.044.
With VCVVALCLPHLP the protein stability index was 0.583 ± 0.012.
VDFVGFGGVEGG gave a protein stability index of 0.75 ± 0.059.
For VDHWVCWCGGWG, the protein stability index was 0.7734 ± 0.0072.
For VDLGLYGYTDIW, the protein stability index was 0.685 ± 0.035.
Work on VDLVSRVVFQDR yielded a protein stability index of 0.7231 ± 0.0015.
In the case of VDPAPPRRPPRY, the protein stability index is reported as 0.694 ± 0.097.
With VDSYTGGFDLSW the protein stability index was 0.681 ± 0.062.
Work on VECLDTKTTCNI yielded a protein stability index of 0.73 ± 0.035.
VEEDPSSQLVIF was tested, and the protein stability index was 0.599 ± 0.01.
Work on VEFGIFACFTRP yielded a protein stability index of 0.6687 ± 0.0019.
For VERDARGESCSR, the protein stability index was 0.747 ± 0.18.
VFAFLKPTGKLV was tested, and the protein stability index was 0.597 ± 0.05.
VFCGACRLHLCL showed a protein stability index of 0.69 ± 0.077.
VFCGGGRFRCSR gave a protein stability index of 0.651 ± 0.023.
VFDHVGWPFWSY gave a protein stability index of 0.714 ± 0.041.
With VFGWAGVGGDCG the protein stability index was 0.674 ± 0.012.
Work on VFHCFVSRRRFC yielded a protein stability index of 0.65 ± 0.022.
With VFHSSTRDSFVS the protein stability index was 0.751 ± 0.066.
Sequence VFIVARGLSLIV has a protein stability index of 0.536 ± 0.014.
VFLRGGVLPLRR gave a protein stability index of 0.691 ± 0.012.
In the case of VFLRVLLECLDF, the protein stability index is reported as 0.5666 ± 0.0036.
VFNLSIPLPSFP gave a protein stability index of 0.707 ± 0.046.
VFPARTALFFPQ gave a protein stability index of 0.726 ± 0.05.
VFQFVLGVILGW gave a protein stability index of 0.5289 ± 0.0035.
VFSASCYSNSAR was tested, and the protein stability index was 0.739 ± 0.032.
In the case of VFWGGGAVGSVR, the protein stability index is reported as 0.69 ± 0.071.
Sequence VGAAGGVGGSGG has a protein stability index of 0.629 ± 0.048.
Work on VGACGWRGWCVV yielded a protein stability index of 0.664 ± 0.011.
Sequence VGAFEGDWGVRH has a protein stability index of 0.671 ± 0.099.
For VGAGLRMRVGEA, the protein stability index was 0.669 ± 0.035.
For VGCRVVPGAGEV, the protein stability index was 0.666 ± 0.016.
VGEGSGEWKFLD was tested, and the protein stability index was 0.809 ± 0.06.
VGELGVFAPGGK was tested, and the protein stability index was 0.5 ± 0.1.
Sequence VGFGFVRSLLVG has a protein stability index of 0.6151 ± 0.005.
VGGGGAELCVVE showed a protein stability index of 0.667 ± 0.022.
VGGGGECCFLEG was tested, and the protein stability index was 0.826 ± 0.1.
Sequence VGGGGRSTGVGK has a protein stability index of 0.65 ± 0.044.
In the case of VGGGKRILVPRS, the protein stability index is reported as 0.691 ± 0.12.
With VGGGLSLGGVWW the protein stability index was 0.691 ± 0.038.
Sequence VGGGRDLFFFKF has a protein stability index of 0.602 ± 0.044.
VGGHGGVGGGMG was tested, and the protein stability index was 0.651 ± 0.026.
VGGIVGWFCRGR gave a protein stability index of 0.698 ± 0.081.
With VGGLGGVGGGMG the protein stability index was 0.654 ± 0.03.
In the case of VGGRAAIVRGGW, the protein stability index is reported as 0.6853 ± 0.0026.
For VGGVAGSFIFSC, the protein stability index was 0.759 ± 0.15.
VGGVGGGRAWWR showed a protein stability index of 0.685 ± 0.055.
For VGKGALHCLPDL, the protein stability index was 0.713 ± 0.0015.
In the case of VGKYVVTKNGGC, the protein stability index is reported as 0.694 ± 0.043.
VGPLIGQVGIDT gave a protein stability index of 0.748 ± 0.014.
Sequence VGPLYFPWSLNF has a protein stability index of 0.692 ± 0.053.
Sequence VGPVDPGDSDGL has a protein stability index of 0.699 ± 0.0065.
In the case of VGQPWRLHFILR, the protein stability index is reported as 0.648 ± 0.0062.
Work on VGQVGAGAVPVG yielded a protein stability index of 0.677 ± 0.037.
VGRESVVGEQFV was tested, and the protein stability index was 0.625 ± 0.025.
For VGRVGVRDGVVG, the protein stability index was 0.613 ± 0.032.
For VGRVGVREGVVG, the protein stability index was 0.638 ± 0.067.
For VGSGGGAPRVGR, the protein stability index was 0.647 ± 0.072.
VGSGGGKGLCRQ gave a protein stability index of 0.674 ± 0.048.
For VGSRGWGRWGVA, the protein stability index was 0.693 ± 0.047.
For VGSWVEVWGVIG, the protein stability index was 0.687 ± 0.041.
VGTFGAGGYAPD gave a protein stability index of 0.646 ± 0.078.
In the case of VGTQIGLWVAQV, the protein stability index is reported as 0.591 ± 0.041.
For VGTRGARREVQT, the protein stability index was 0.734 ± 0.07.
For VGVGGRRYNVRG, the protein stability index was 0.66 ± 0.013.
VGVGGVGRRAKI was tested, and the protein stability index was 0.687 ± 0.075.
VGVGNRRWGGGV was tested, and the protein stability index was 0.679 ± 0.014.
Sequence VGVGRRGGVGEG has a protein stability index of 0.654 ± 0.029.
VGVRCVGVLFGV gave a protein stability index of 0.637 ± 0.0072.
VGVRRAGGARGW showed a protein stability index of 0.634 ± 0.088.
Work on VGVSGEGFSWGG yielded a protein stability index of 0.674 ± 0.019.
With VGVSGEGFSWVG the protein stability index was 0.675 ± 0.021.
In the case of VGVWRGWDVDCH, the protein stability index is reported as 0.776 ± 0.061.
For VGWCTGWFVGLV, the protein stability index was 0.6652 ± 0.0063.
VGWGGGVEEVKG was tested, and the protein stability index was 0.712 ± 0.017.
With VHFECFLVPFLL the protein stability index was 0.525 ± 0.028.
For VHGRAPTSRSGT, the protein stability index was 0.72 ± 0.043.
VHRRRVSVGGGG showed a protein stability index of 0.69 ± 0.0092.
In the case of VHWRDARFLRGM, the protein stability index is reported as 0.658 ± 0.045.
Work on VHWVVFSVPRQA yielded a protein stability index of 0.73 ± 0.033.
VIGRRRLQDWII showed a protein stability index of 0.736 ± 0.081.
Work on VIRGVVPVVRSV yielded a protein stability index of 0.668 ± 0.037.
VIRRLSNPCILR showed a protein stability index of 0.663 ± 0.067.
VITGGFVVGCCG showed a protein stability index of 0.623 ± 0.018.
Sequence VIYIEYIGRNFI has a protein stability index of 0.631 ± 0.027.
Sequence VKEHRPQRNPSH has a protein stability index of 0.675 ± 0.016.
VKEKKKDEKRKR showed a protein stability index of 0.747 ± 0.072.
In the case of VKENLCLLWVYR, the protein stability index is reported as 0.562 ± 0.013.
Sequence VKEVSVIKNHQG has a protein stability index of 0.454 ± 0.11.
VKTIRVTKSVGD was tested, and the protein stability index was 0.6941 ± 0.0057.
Work on VKYPALMITGFW yielded a protein stability index of 0.669 ± 0.015.
VLALPSSPLLPS was tested, and the protein stability index was 0.643 ± 0.1.
VLARPQAKAPLG showed a protein stability index of 0.571.
VLGGSMWLDLVC showed a protein stability index of 0.781 ± 0.23.
VLGPFKKSIQVL showed a protein stability index of 0.522 ± 0.02.
For VLGRLRVGRDRV, the protein stability index was 0.7521 ± 0.0019.
With VLGSSSKLGSLS the protein stability index was 0.647 ± 0.025.
In the case of VLGVVGNYFESA, the protein stability index is reported as 0.668 ± 0.078.
VLGWCLCGRTCG gave a protein stability index of 0.6579 ± 0.0013.
VLHGGKLFGFVR gave a protein stability index of 0.676 ± 0.017.
In the case of VLIFSSFRSLVF, the protein stability index is reported as 0.562 ± 0.081.
For VLLAGPIPSALP, the protein stability index was 0.662 ± 0.0079.
Sequence VLLGCRRAWVGF has a protein stability index of 0.669 ± 0.018.
VLLHFRSFAPPV was tested, and the protein stability index was 0.613 ± 0.008.
Sequence VLLYAPLLPPLA has a protein stability index of 0.622 ± 0.018.
VLPRPLPALPPL showed a protein stability index of 0.683 ± 0.028.
In the case of VLRDLGVSLSRA, the protein stability index is reported as 0.785 ± 0.025.
With VLRHRGEGGPGA the protein stability index was 0.67 ± 0.035.
For VLSAPPGLLSYT, the protein stability index was 0.623 ± 0.053.
In the case of VLSGLPPGFTLV, the protein stability index is reported as 0.644 ± 0.012.
VLSSASRGSRCL gave a protein stability index of 0.707 ± 0.17.
In the case of VLSSSTLFFLVF, the protein stability index is reported as 0.584 ± 0.024.
VLTFVWLVGQGF showed a protein stability index of 0.581 ± 0.048.
VLVFPVVYWILR showed a protein stability index of 0.543 ± 0.038.
VNLSNLRPCPTR showed a protein stability index of 0.707 ± 0.065.
Work on VPASVRRSAPVP yielded a protein stability index of 0.664 ± 0.044.
VPAVGGFLMFIG was tested, and the protein stability index was 0.638 ± 0.0094.
Work on VPCSIQWNLDEL yielded a protein stability index of 0.673 ± 0.055.
With VPDDGVLLSVLE the protein stability index was 0.7182 ± 0.0017.
Sequence VPFFLSNSSHIK has a protein stability index of 0.679 ± 0.051.
VPFQEGHVKRFL was tested, and the protein stability index was 0.665 ± 0.019.
Work on VPGRSPTKSTVS yielded a protein stability index of 0.66808 ± 0.00013.
In the case of VPGWRVGGARSV, the protein stability index is reported as 0.746 ± 0.048.
Sequence VPLFLVPGLSAV has a protein stability index of 0.602 ± 0.0083.
Work on VPLGFPPPPLDP yielded a protein stability index of 0.727 ± 0.038.
VPLRGPAPPRPR gave a protein stability index of 0.739 ± 0.035.
For VPLRPFFPTLFP, the protein stability index was 0.712 ± 0.063.
In the case of VPLSPVSSGAPD, the protein stability index is reported as 0.66 ± 0.04.
Work on VPPHLLAPDPRL yielded a protein stability index of 0.7158 ± 0.0066.
VPPLRPVAPCRG was tested, and the protein stability index was 0.533 ± 0.014.
VPPLVSSSSLLL showed a protein stability index of 0.636 ± 0.082.
Sequence VPPPLRLWPLPV has a protein stability index of 0.618 ± 0.076.
VPPPPPRLKRFA showed a protein stability index of 0.639 ± 0.035.
VPPPRLPQPLFP gave a protein stability index of 0.717 ± 0.052.
Work on VPRCLPVGLLFF yielded a protein stability index of 0.71 ± 0.19.
VPRPFILTATSE showed a protein stability index of 0.675 ± 0.084.
Sequence VPRRSLLSPPPP has a protein stability index of 0.668 ± 0.023.
VQGSRKGSRERW gave a protein stability index of 0.683 ± 0.065.
VQLHIDVRSFLF gave a protein stability index of 0.67 ± 0.014.
VQTIKPVPSGLR showed a protein stability index of 0.622 ± 0.078.
Sequence VQVRPVVTVPSK has a protein stability index of 0.7 ± 0.068.
VQWTEFYWVRKG gave a protein stability index of 0.575 ± 0.037.
Work on VRALGRDGIRQC yielded a protein stability index of 0.602 ± 0.015.
Work on VRCCFGGRGGIA yielded a protein stability index of 0.653 ± 0.0079.
VRCGGPGRAGKG was tested, and the protein stability index was 0.63 ± 0.052.
With VRDRVLFVARGG the protein stability index was 0.6996 ± 0.00075.
